# Molecular target: human-thrombin (product of Sigma) (human) (UniProt P00734)
# Assay: chromogenic thrombin inhibition assay, potency column of Table 3 (hirudin HV-1 = 1)
row,Substance,Potency
1,hirudin HV-1,1

# Molecular target: human-thrombin (product of Sigma) (human) (UniProt P00734)
# Assay: not given
Substance,50% Inhibition Concentration (clotting assay) [ng/mL],Potency
peptide (K) Suc-Phe-Glu-Pro-Ile-Pro-Glu-Tyr-Tyr-NH(CH2)2COOH,30200,0.21
peptide (L) Suc-Phe-Glu-Pro-Ile-Pro-Glu-Tyr-Tyr-NH(CH2)4COOH,15600,0.42
peptide (B) Gly-Asp-Phe-Glu-Glu-Ile-Pro-Tyr-Tyr-Tyr-Leu-Gln,13800,0.48
peptide (S) Suc-Phe-Glu-Pro-Ile-Pro-Glu-Tyr-Tyr-Leu-Tau-NH2,99600,0.07
peptide (U) Suc-Phe-Glu-Pro-Ile-Pro-Glu-Tyr-Tyr-Leu-(D)Asu(OMe)OMe,47500,0.14
peptide (O) Suc-Phe-Glu-Pro-Ile-Pro-Glu-Tyr-Tyr-(L)Asu(OMe)OMe,35300,0.19
peptide (J) Suc-Phe-Glu-Pro-Ile-Pro-Glu-Tyr-Tyr-NH2,98400,0.07
peptide (C) Suc-Gly-Asp-Phe-Glu-Pro-Ile-Pro-Glu-Tyr-Tyr-Leu-Gln-OH,3750,1.76
peptide (V) Suc-Phe-Glu-Pro-Ile-Pro-Glu-Tyr-Tyr-Leu-(L)Asu(OMe)OMe,30400,0.22
hirudin HV-1,–,95
peptide (W) Suc-Phe-Glu-Pro-Ile-Pro-Glu-Tyr-Tyr-Leu-(D)Asu(NH2)NH2,35000,0.19
peptide (R) Suc-Phe-Glu-Pro-Ile-Pro-Glu-Tyr-Tyr-Leu-NHEt,36100,0.18
peptide (I) Suc-Phe-Glu-Pro-Ile-Pro-Glu-Tyr-Tyr-OH,20000,0.83
peptide (A) Gly-Asp-Phe-Glu-Glu-Ile-Pro-Glu-Tyr-Tyr-Leu-Gln,14700,0.45
peptide (P) Suc-Phe-Glu-Pro-Ile-Pro-Glu-Tyr-Tyr-Leu-ol,104000,0.06
peptide (Y) Suc-Phe-Glu-Pro-Ile-Pro-Glu-Tyr-Tyr-Leu-NHPO(OH)2,153000,0.04
peptide (N) Suc-Phe-Glu-Pro-Ile-Pro-Glu-Tyr-Tyr-NH(CH2)3OH,103000,0.06
